Results: patent US6867010

Experiments:
[1] = molecular target: base-linker-oligodeoxynucleotide conjugate (compound 8); experiment: phage crosslinked to biotinylated base-linker-oligodeoxynucleotide conjugate in EDTA, captured on streptavidin beads, titered by direct infection with the beads
[2] = molecular target: base-linker-oligodeoxynucleotide conjugate (compound 8); experiment: phage crosslinked to biotinylated base-linker-oligodeoxynucleotide conjugate, captured on streptavidin beads, titered after DNase I release
[3] = molecular target: base-linker-pTp conjugate (compound 9); experiment: phage crosslinked to biotinylated base-linker-pTp conjugate, captured on streptavidin beads, titered by direct infection with the beads
[4] = molecular target: base-linker-oligodeoxynucleotide conjugate (compound 8); experiment: phage without acid peptide incubated with biotinylated oligodeoxynucleotide-peptide B conjugate, captured on streptavidin beads, phage titering

Substance | efficiency of immobilization [1] [%] | true immobilization efficiency [2] [%] | efficiency of phage immobilization [3] [%] | percent of phage immobilized [4] [%]
acid peptide A-pIII fusion displayed on acid helper phage (M13K07 helper phage with the acidic peptide A and a C-terminal GGC extension inserted at the N-terminus of pIII) (from UniProt P69168 1-3) | 10 | 80 | 10 | 
wildtype pIII protein on phage produced with wildtype M13K07 helper phage (from UniProt P69168 19-424) |  |  |  | 0.3
